{
  "source": "patent US20170173114A1",
  "about": "“METHODS AND COMPOSITIONS FOR INDUCTION OF UCP1 EXPRESSION” (Joslin Diabetes Center, Inc., priority 2014, published 2017)",
  "molecules": {"B1": {"name": "FGF21: fibroblast growth factor 21, member of the endocrine FGF ligands (protein, listed as Homo sapiens)", "chain": "MDSDETGFEHSGLWVSVLAGLLLGACQAHPIPDSSPLLQFGGQVRQRYLYTDDAQQTEAHLEIREDGTVGGAADQSPESLLQLKALKPGVIQILGVKTSRFLCQRPDGALYGSLHFDPEACSFRELLLEDGYNVYQSEAHGLPLHLPGNKSPHRDPAPRGPARFLPLPGLPPALPEPPGILAPQPPDVGSSDPLSMVGPSQGRSPSYAS"}, "B2": {"name": "EGF: control treatment in glucose uptake assay (protein, UniProt P01133 23-1207, looked up)", "Pro-epidermal growth factor": "PQHWSCPEGTLAGNGNSTCVGPAPFLIFSHGNSIFRIDTEGTNYEQLVVDAGVSVIMDFHYNEKRIYWVDLERQLLQRVFLNGSRQERVCNIEKNVSGMAINWINEEVIWSNQQEGIITVTDMKGNNSHILLSALKYPANVAVDPVERFIFWSSEVAGSLYRADLDGVGVKALLETSEKITAVSLDVLDKRLFWIQYNREGSNSLICSCDYDGGSVHISKHPTQHNLFAMSLFGDRIFYSTWKMKTIWIANKHTGKDMVRINLHSSFVPLGELKVVHPLAQPKAEDDTWEPEQKLCKLRKGNCSSTVCGQDLQSHLCMCAEGYALSRDRKYCEDVNECAFWNHGCTLGCKNTPGSYYCTCPVGFVLLPDGKRCHQLVSCPRNVSECSHDCVLTSEGPLCFCPEGSVLERDGKTCSGCSSPDNGGCSQLCVPLSPVSWECDCFPGYDLQLDEKSCAASGPQPFLLFANSQDIRHMHFDGTDYGTLLSQQMGMVYALDHDPVENKIYFAHTALKWIERANMDGSQRERLIEEGVDVPEGLAVDWIGRRFYWTDRGKSLIGRSDLNGKRSKIITKENISQPRGIAVHPMAKRLFWTDTGINPRIESSSLQGLGRLVIASSDLIWPSGITIDFLTDKLYWCDAKQSVIEMANLDGSKRRRLTQNDVGHPFAVAVFEDYVWFSDWAMPSVMRVNKRTGKDRVRLQGSMLKPSSLVVVHPLAKPGADPCLYQNGGCEHICKKRLGTAWCSCREGFMKASDGKTCLALDGHQLLAGGEVDLKNQVTPLDILSKTRVSEDNITESQHMLVAEIMVSDQDDCAPVGCSMYARCISEGEDATCQCLKGFAGDGKLCSDIDECEMGVPVCPPASSKCINTEGGYVCRCSEGYQGDGIHCLDIDECQLGEHSCGENASCTNTEGGYTCMCAGRLSEPGLICPDSTPPPHLREDDHHYSVRNSDSECPLSHDGYCLHDGVCMYIEALDKYACNCVVGYIGERCQYRDLKWWELRHAGHGQQQKVIVVAVCVVVLVMLLLLSLWGAHYYRTQKLLSKNPKNPYEESSRDVRSRRPADTEDGMSSCPQPWFVVIKEHQDLKNGGQPVAGEDGQAADGSMQPTSWRQEPQLCGMGTEQGCWIPVSSDKGSCPQVMERSFHMPSYGTQTLEGGVEKPHSLLSANPLWQQRALDPPHQMELTQ", "modifications": "Pro-epidermal growth factor"}},
  "key": {"UCP1 [1]": {"test_system": "UCP1", "assay": "UCP1 mRNA expression in C2C12 myogenic progenitors", "type": "cell-based", "details": "three days"}, "UCP1 [2]": {"test_system": "UCP1", "assay": "UCP1 mRNA expression (Q-RT-PCR) in WT-1 brown preadipocytes", "type": "cell-based, murine", "protocol": "Total RNA was isolated with QIAzol lysis reagent (Qiagen, Valencia, Calif.) and purified by RNeasy Mini columns (Qiagen) following the manufacture's instructions. cDNA was prepared from total RNA using the Advantage RT-PCR kit (BD Biosciences, Palo Alto, Calif.) according to manufacturer's instructions. Diluted cDNA was used in a PCR reaction with SYBR Green Master Mix (Applied Biosystems, Foster City, Calif.) and primers specifically designed for detection of the gene of interest. PCR reactions were run in duplicate for each sample and quantitated in the ABI Sequence Detection System (Applied Biosystems). Data were expressed as arbitrary units after normalization to levels of expression of internal controls for each sample. Sequences of primers for specific genes are each obtained from the published literature or designed using publically available gene sequence databases. Unless otherwise indicated, gene expression data described in the examples below was obtained using QPCR.\nThe effect of FGF6 on differentiation of WT-1 murine brown preadipocytes was also examined. WT-1 cells can be induced to undergo brown adipocyte differentiation, characterized by lipid accumulation and expression of adipogenic and brown fat markers, as described above (Klein et al. (1999) J Biol Chem 274:34795; Tseng et al. (2005) Nat Cell Biol 7:601). WT-1 cells were treated with FGF6 in growth media (DMEM+10% FBS), a vehicle control (“control” or “C” referred to in FIGS. 3A-D), or induction media (“induction” or “I” referred to in FIGS. 3A-D) as described above for seven days. Following the treatment, cells were examined for the color of the culture media in combination with oil Red O staining, expression of adipogenic markers, expression of brown fat markers, immunofluorescent staining of cells with UCP1 and DPAI, and Western blot analysis to determine the presence of UCP1 and β-tubulin. The results are described in FIGS. 3A to 3D.\nUCP1 mRNA expression in brown adipocyte cells was determined at FGF6 concentrations ranging from 0 to 300 ng/ml in the absence of induction cocktail.\nIn order to determine the length of time necessary to induce UCP1 expression upon exposure to of cells to FGF6, an experiment was performed whereby FGF6 was administered to brown preadipocytes at a concentration of 200 ng/ml and UCP1 expression was determined. FGF21 and a control were also used in the time course experiment. FGF21, a member of the endocrine FGF ligands that has been implicated in the browning of white fat (Fisher F. M. et al., Genes Dev. 26:271-281, 2012). […] FGF6 could acutely induce a significant increase of UCP1 expression as early as 4 hours after a 200 ng/ml dose, as described in FIG. 4B. At 24 hours, the fold-induction of UCP1 mRNA by FGF6 reached 700-fold higher than the untreated cells, as described in FIG. 4B.\nTo assess FGF6's role in the regulation of mitochondrial activity, FGF6 was stably expressed in WT-1 brown preadipocytes and 3T3-F442A white preadipocytes. Stable cells were generated by viral infection followed by drug selection.\nFGF2, FGF6 and FGF9 were used at a dosage of 50 ng/mL, 100 ng/mL, 200 ng/mL or 300 ng/mL. FGF21 was used at the dosage of 50 ng/ml and 500 ng/mL. The concentration of BMP7 was 3.3 nM. RNA was isolated and UCP1 and PPARγ expression levels were evaluated by quantitative reverse transcription polymerase chain reaction (Q-RT-PCR) analysis after 24 hours (i.e., 1 day) (FIG. 14A), 2 days (FIG. 14B), 5 days (FIG. 14C) and 7 days (FIG. 14D) of treatment. All experiments were performed triplicate and the data are presented as mean+/−SEM.\nFGF2, FGF6 and FGF9 were used at a dosage of 200 ng/mL. FGF21 was used at a dosage of 500 ng/mL. The concentration of BMP7 was 3.3 nM. mRNA was isolated and UCP1 and PPARγ expression levels were evaluated by quantitative reverse transcription polymerase chain reaction (Q-RT-PCR) analysis after 24 hours (i.e., 1 day), 2 days, 5 days and 7 days of treatment (FIG. 15). […]"}, "UCP1 [3]": {"test_system": "UCP1", "assay": "UCP1 mRNA expression in SVF cells from interscapular brown adipose tissue (BAT-SVF)", "type": "cell-based, C57BL/6 mice", "details": "growth media, 3 days; vs control", "protocol": "(§1) Eight 6-week old C57BL/6 male mice were sacrificed. Interscapular BAT and axillary subcutaneous WAT were removed, minced and digested with 1 mg/ml collagenase for 45 minutes at 37° C. in DMEM/F12 media, containing 1% BSA and antibiotics. Digested tissues were filtered through sterile 150 μm nylon mesh and centrifuged at 250×g for 5 minutes. The floating fractions consisting of adipocytes were discarded and the pellets representing the SVF were then resuspended in erythrocyte lysis buffer (154 mM NH4Cl, 10 mM KHCO3, 0.1 mM EDTA) for 10 minutes to remove red blood cells. The cells were further centrifuged at 500×g for 5 minutes, plated at 8×10^5 cells/well of a 24-well plate and grown at 37° C. in DMEM/F12 supplemented with 10% FBS at 37° C.\n(§2) To determine if FGF6 treatment of primary adipose progenitors could also increase UCP1 expression as observed in Example 1, stromo-vascular fraction (SVF) cells, which comprise adipocyte progenitors, were isolated from interscapular brown adipose tissue (BAT-SVF) and subcutaneous white adipose tissue (SQ-SVF). SVF cells were subsequently treated with FGF6 or FGF21 in growth media (DMEM+10% FBS) for 3 days, followed by determination of UCP1 expression. As described in FIGS. 9A and 9B, FGF21 treatment had little effect on UCP1 mRNA expression in either type of SVF cells, as compared to the control. […]"}, "UCP1 [4]": {"test_system": "UCP1", "assay": "UCP1 mRNA expression in SVF cells from subcutaneous white adipose tissue (SQ-SVF)", "type": "cell-based, C57BL/6 mice", "details": "growth media, 3 days; vs control", "protocol": "as §1, §2"}, "[5]": {"test_system": "3T3-F442A white preadipocytes", "assay": "2-deoxy-[3H]glucose uptake in 3T3-F442A white preadipocytes", "type": "cell-based", "details": "FGF6 overexpressing vs control and EGF", "protocol": "(§3) The following glucose uptake assay was used to determine whether FGF6 could impact cellular glucose uptake. Specifically, glucose uptake was monitored in WT-1 brown preadipocytes and 3T3-F442A white preadipocytes in the presence or absence of FGF6. After serum starvation in DMEM/H medium containing 1% of BSA for 2-3 h, cells were washed with HEPES buffer and then incubated with or without 100 nM insulin for 30 min in DMEM/H medium containing 1% of BSA. Glucose transport was determined by the addition of 2-deoxy-[3H]glucose (0.1 mM, 0.5 μCi/mL; PerkinElmer Life and Analytical Science, Waltham, Mass.). After 5 minutes of incubation, the reaction was stopped by ice-cold PBS and cells were washed twice with ice-cold PBS. Cells were then lysed in 0.1% SDS, and glucose uptake was assessed in 4 mL of scintillant using Beckman LS6500 scintillation counter (Beckman Coulter, Indianapolis Ind.). Nonspecific 2-deoxy-[3H]glucose uptake was measured in the presence of cytochalasin B (20 μM) and was subtracted from the total uptake to get specific glucose uptake. Results were expressed as the mean±s.e.m. of the indicated number of experiments. The protein content was determined by the Bradford method."}, "WT-1 brown preadipocytes": {"test_system": "WT-1 brown preadipocytes", "assay": "2-deoxy-[3H]glucose uptake in WT-1 brown preadipocytes", "type": "cell-based, murine", "details": "FGF6 overexpressing vs control and EGF", "protocol": "as §3\nThe role of PGs in regulating mitochondrial function and cellular glucose uptake was also assessed. […]"}, "[6]": {"details": "FGF21 50 and 500 ng/mL, BMP7 3.3 nM, with insulin and T3"}},
  "note": "“Also recorded” adds a separate entry of the source.",
  "data": [
    {"molecule": "B1", "values": [
      {"measurement": "UCP1 mRNA expression in C2C12 myogenic progenitors", "setting": "UCP1 [1]", "value": "neither FGF6 nor FGF21 induced UCP1 mRNA expression; also recorded: no induction of UCP1"},
      {"measurement": "UCP1 expression level, time course", "setting": "UCP1 [2]; FGF2, FGF6, FGF9 200 ng/mL, FGF21 500 ng/mL, with insulin and T3, 1, 2, 5, 7 days", "value": "did not express detectable amounts of UCP1"},
      {"measurement": "UCP1 expression level at day 7", "setting": "UCP1 [2]; [6]", "value": "only minimal amounts"},
      {"measurement": "UCP1 expression level at days 1, 2 and 5", "setting": "UCP1 [2]; [6]", "value": "did not express detectable amounts of UCP1"},
      {"measurement": "effect on UCP1 expression in brown preadipocytes cultured in growth media", "setting": "UCP1 [2]; data not shown", "value": "marginal effect"},
      {"measurement": "effect on UCP1 mRNA expression in BAT-SVF", "setting": "UCP1 [3]", "value": "little effect"},
      {"measurement": "effect on UCP1 mRNA expression in SQ-SVF", "setting": "UCP1 [4]", "value": "little effect"}
    ]},
    {"molecule": "B2", "values": [
      {"measurement": "glucose uptake level in F442A (white) preadipocytes", "setting": "[5]", "value": "no substantial effect"},
      {"measurement": "glucose uptake level in WT-1 (brown) preadipocytes", "setting": "WT-1 brown preadipocytes", "value": "no substantial effect"}
    ]}
  ]
}
